Measured values published in patent publication US5985278A (Merck Patent Gesellschaft mit Beschrankter Haftung, priority 1994, dated 1999).
Values joined by “and” are separate entries in the source; they are usually repeats but may differ in a detail not shown here. Equal values may be shown once. Read-outs that look alike come from different tables or passages of the source.

Assays:
[1] = target: T1, integrin αvβ3 on human cells (human, UniProt P06756)
[2] = tested on: human melanoma and carcinoma cell lines; assay: αV-mediated cell attachment to vitronectin, cell line panel; type: cell-based; details: read-out: IC50 in cellular assay
Procedure: (§1) Cell Attachment Assays were as previously described (Goodman et al., 1991), using hexosaminidase activity (Landegren, 1984) to detect attached cells. Dilutions and cell suspensions were in attachment buffer (RPMI, 1% BSA, 25 mM HEPES; pH 7.4). Matrix proteins were coated onto 96- or 48-well plates, the wells were blocked with BSA and serially diluted MAbs were added to the wells followed by cells (2.5×10^4 -5×10^4). After 1 h at 37° C., non-adherent cells were washed away and attached cells counted against a standard curve run in parallel. Inhibition of attachment was calculated by using wells with no MAbs as reference. Typically, over 70% of added cells had attached to vitronectin at 1 h. Cell attachment to wells coated with BSA alone was routinely less than 5% of specifically attached cells.

[3] = target: purified human placental integrin αvβ3 (human) (UniProt P06756); assay: isolated receptor assay, vitronectin on αvβ3-coated plates
[4] = target: purified human placental integrin αvβ3 (human) (UniProt P06756); assay: pre-block competition: ligand pre-bound to αvβ3-coated plates, labelled 17E6 as probe
[5] = target: T1, integrin αvβ3 on human cells; assay: cell-based or functional assay
[6] = target: T2, integrin αvβ5 on human cells (human, UniProt P06756); assay: cell-based or functional assay
[7] = target: purified human placental integrin αvβ3 (human) (UniProt P06756); assay: ELISA on isolated αvβ3
[8] = target: integrin β3 chain, intracellular pool of M21-L cells (human, UniProt P05106); assay: flow cytometry, permeabilized M21-L cells
[9] = target: human αv-integrin chain on the cell surface (human) (UniProt P06756)
[10] = target: T2, integrin αvβ5 on human cells; set-up: IC50, M21 cell attachment to vitronectin: unit not given beside the values
[11] = target: human αv-integrin chain on the cell surface (human) (UniProt P06756); set-up: IC50, M21 cell attachment to vitronectin: unit not given beside the values
[12] = target: integrin αIIbβ3 on M21-L-IIb cells (human, UniProt P08514); assay: CELISA, fixed M21-L-IIb cells
[13] = target: human αv-integrin chain on the cell surface (human) (UniProt P06756); remark: listed apart in the source
[14] = target: purified human placental integrin αvβ3 (human) (UniProt P06756); assay: direct competition with biotinylated vitronectin on αvβ3-coated plates, 70 nM antibody
[15] = target: integrin αvβ1 on V+B2 cells
purified αvβ3 = assay: ELISA on purified αvβ3; type: binding, human; details: FIG. 10
αvβ1 (V+B2 cells) = assay: Cell attachment to vitronectin mediated by αvβ1 (V+B2 cells); type: cell-based; details: FIG. 11
Procedure: as §1

[16] = tested on: αvβ3 (WM164 and M21 cells); assay: Cell attachment to vitronectin mediated by αvβ3 (WM164 and M21 cells); type: cell-based, human; details: FIG. 11
Procedure: as §1

αvβ5 (UCLA-P3 cells) = assay: Cell attachment to vitronectin mediated by αvβ5 (UCLA-P3 cells); type: cell-based, human; details: vitronectin, FIG. 11
Procedure: as §1

[17] = target: human αv-integrin chain on the cell surface (human, UniProt P06756); assay: cell-based or functional assay

LM609 (antibody)
IC50, WM793 cell attachment to vitronectin [1]: 0.6 µg/mL

CC(C)[C@@H]1NC(=O)[C@@H](Cc2ccccc2)NC(=O)[C@H](CC(=O)O)NC(=O)CNC(=O)[C@H](CCCNC(=N)N)NC1=O [cRGDfV, cyclic peptide: Arg-Gly-Asp-DPhe-Val, reference compound]
IC50 [2]: ~1000 nM

vitronectin (from UniProt P04004) (ligand)
saturation concentration [3]: 5 µg ml^-1 and 10 nM | % block of labelled 17E6 binding [4]: < 10%

fibrinogen (ligand)
% block of labelled 17E6 binding [4]: < 10%

B1: 17E6 F(ab')2 fragment (other)
VH: QVQLQQSGAELAEPGASVKMSCKASGYTFSSFWMHWVKQRPGQGLEWIGYINPRSGYTECNEIFRDKATMTADTSSSTAYMQLSGLTSEDSAVYYCASFLGRGAMDYWGQGTSVTVSS
VL: DIQMTQTTSSLSASLGDRVIISCRASQDISNYLSWYQQKPDGTVKLLIFYTSKLHSGVPSRFSGSGSGTDYSLTISNLDQEDIATYFCQQGNTFPYTFGGGTKVEMR
IC50, WM164 and M21 cell attachment to vitronectin [5]: ~0.5 µg ml^-1 and ~3 nM | IC50, UCLA-P3 cell attachment to vitronectin [6]: ~0.1 µg ml^-1 and ~700 pM | EC50 [7]: 0.001 µg/mL

B2: monoclonal antibody 17E6 (antibody, V domains shown)
VH: QVQLQQSGAELAEPGASVKMSCKASGYTFSSFWMHWVKQRPGQGLEWIGYINPRSGYTECNEIFRDKATMTADTSSSTAYMQLSGLTSEDSAVYYCASFLGRGAMDYWGQGTSVTVSS
VL: DIQMTQTTSSLSASLGDRVIISCRASQDISNYLSWYQQKPDGTVKLLIFYTSKLHSGVPSRFSGSGSGTDYSLTISNLDQEDIATYFCQQGNTFPYTFGGGTKVEMR
IC50, WM164 and M21 cell attachment to vitronectin [5]: ~0.5 µg ml^-1 and ~3 nM | IC50, WM793 cell attachment to vitronectin [5]: ~0.06 µg/mL | binding result [8]: no binding | IC50, cellular attachment assay [9]: 0.1 µg/mL | IC50, UCLAP3 cell attachment to vitronectin [10]: 0.03 µg/mL | IC50, M21 cell attachment to vitronectin [11]: 0.1 | M21 cell attachment to vitronectin, purified antibody [11]: 85% | binding result [12]: no binding | IC50, αV-mediated cell attachment [13]: 0.3 to 1 nM | % inhibition of vitronectin binding [14]: < 30%

B3: 17E6 F(ab') fragment (Fab, V domains shown)
VH: QVQLQQSGAELAEPGASVKMSCKASGYTFSSFWMHWVKQRPGQGLEWIGYINPRSGYTECNEIFRDKATMTADTSSSTAYMQLSGLTSEDSAVYYCASFLGRGAMDYWGQGTSVTVSS
VL: DIQMTQTTSSLSASLGDRVIISCRASQDISNYLSWYQQKPDGTVKLLIFYTSKLHSGVPSRFSGSGSGTDYSLTISNLDQEDIATYFCQQGNTFPYTFGGGTKVEMR
IC50, WM164 and M21 cell attachment to vitronectin [5]: > 50 µg ml^-1 and > 400 nM | fold activity in cell attachment to vitronectin, against αvβ3 [6]: 10000 fold | EC50 [7]: 0.001 µg/mL | fold activity in cell attachment to vitronectin, against αvβ3 [15]: 10000 fold

B4: F(ab')2: F(ab')2 fragment of 17E6 prepared by pepsin cleavage (antibody, V domains shown)
VH: QVQLQQSGAELAEPGASVKMSCKASGYTFSSFWMHWVKQRPGQGLEWIGYINPRSGYTECNEIFRDKATMTADTSSSTAYMQLSGLTSEDSAVYYCASFLGRGAMDYWGQGTSVTVSS
VL: DIQMTQTTSSLSASLGDRVIISCRASQDISNYLSWYQQKPDGTVKLLIFYTSKLHSGVPSRFSGSGSGTDYSLTISNLDQEDIATYFCQQGNTFPYTFGGGTKVEMR
50% saturation in ELISA on isolated αvβ3 (purified αvβ3): ~ 1 ng ml^-1 | IC50, cell attachment mediated by αvβ1 (V+B2 cells) (αvβ1 (V+B2 cells)): ~ 0.1 μg ml^-1 | IC50, αvβ3 attachment (WM164 and M21 cells) [16]: ~ 0.5 μg ml^-1 | IC50, cell attachment mediated by αvβ5 (UCLA-P3 cells) (αvβ5 (UCLA-P3 cells)): ~ 0.1 μg ml^-1

GRGDSPK [linear peptide GRGDSPK]
IC50, αV-mediated cell attachment [17]: ~5000 nM
